Experiment: yeast display, Sf9 membrane polyspecificity reagent, FACS + sequencing; frameworks hold sequencing errors
How it was run: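 Polyreactivity labels are assigned by the sorting gate from which each nanobody was recovered. The gates were low and high (top ~1%), set on anti-HA fluorescence for expression and streptavidin fluorescence for reagent binding. Before sorting, galactose-induced (36–48 hours) yeast display cells were stained for 1 hour at 4 °C with 10% biotinylated, detergent-solubilized Sf9 membrane reagent.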

Row | Sequence | polyreactivity (PSR sort gate)
1 | QVQLVESGGGLVQAGGSLRLSCAASGSTFPRNAMGWYRQAPGKERELVAAISSGGSTYYADSVKWRFTISRDNAKNTVYLQMNSLKPEDTAVYYCAARLYWPIIVVDLYGYDYWGQGTQVTVSS | low polyreactivity
2 | QVQLVESGGGLVQAGGSLRLSCAASGSTFPRNAMGWYRQAPGKERELVATISTSGGSTYYADSVKGRFTISRDNAKNTVYLQMNSLKPEDTPVYYCAAVFWFRSLSGYIYDYWGQGTQVSVSS | low polyreactivity
3 | QVQLVESGGGLVQAGGSLRLSCAASGSTFPRNAMGWYRQAPGKERELVATITSSGGGTYYADSVKGRFTISRDNAKNTVYLQMNSLKPEDTAVYYCNAAGPAGDAFDYWGQGTQVTVSS | low polyreactivity
4 | QVQLVESGGGLVQAGGSLRLSCAASGSTFPRNAMGWYRQAPGKEWELVAAISGRGVRTYYADSVKGRFTISSDNAKNTVNFQMYSLKPEDTAVYYCAASRGKGVGLAYDYWGQGTQVTVSS | high polyreactivity
5 | QVQLVESGGGLVQAGGSLRLSCAASGSTFPRYALGWYRQAPGKERELVAAISRSGGSTYYADSVKGRFTISRDNAKNTVYLQMNSLKPEDTAVYYCAARYERGSYKYDYWGQGTQVTVSS | high polyreactivity
6 | QVQLVESGGGLVQAGGSLRLSCAASGSTFPRYAMGWYRQAPGKEREFVAVIWSGGSTYYADSVKGRFTISRDNAKNTVYLQMNSLKPEDTAVYYCAAEYHTLSKYSGYATHDYWGQGTQVTVSS | low polyreactivity
7 | QVQLVESGGGLVQAGGSLRLSCAASGSTFPRYAMGWYRQAPGKERELVAAISKSGTITSYADSVKGRFTISRDNAKNTVYLQMNSLKPEDTAVYYCAKGRYWPYDYWGQGTQVTVSS | high polyreactivity
8 | QVQLVESGGGLVQAGGSLRLSCAASGSTFPSNAMGWYRQAPGKERELVAAITFRGGRTYYADSVKGRFTISRDNAKNTVYLQMNSLKPEDTAVYYCAAERWWYTVRGYGYWGQGTQVTVSS | high polyreactivity
9 | QVQLVESGGGLVQAGGSLRLSCAASGSTFPSYAMGWYRQAPGKERELVAAITNGGSTTYADSVKGRFTISRDNAKNTVYLQMNSLKPDDTAVYYCAARYYYYYYYIRRDYWGQGTQVTVSS | low polyreactivity
10 | QVQLVESGGGLVQAGGSLRLSCAASGSTFPVNTMGWYRQAPGKERELVAAITKNGANTYYADSVKGRFTISRDNAKNTVYLQMNSLKPEDTADYYCAARYVYGKSYSRWLVELDYWGQGTQVTVSS | low polyreactivity
11 | QVQLVESGGGLVQAGGSLRLSCAASGSTFPVYAMGWYRQAPGKERELVAAINSGVSTNYADSVKGRFTISRDNAKNTVYLQMNSLKPEDTAVYYCNTSYVGYPDLGINYEFDYWGQGTQVTVSS | low polyreactivity
12 | QVQLVESGGGLVQAGGSLRLSCAASGSTFPVYAMGWYRQAPGKERELVATISYSGGSTNYADSVKGRFTISRDNAKNTVYLQMNSLIPEDTAVYYCAARKVNRGSGGYDSWGQGTQVTVSS | high polyreactivity
13 | QVQLVESGGGLVQAGGSLRLSCAASGSTFPWYTMGWYRQAPGKERELVAAISFSGGRTYYADSVKGRFTISRDNAKNTVYLQMNSLKPEDTAVYYCAATVGAASRYYYWGQGTQVTVSS | high polyreactivity
14 | QVQLVESGGGLVQAGGSLRLSCAASGSTFPYNAKGWYRQAPGKERELVAAIDYSGGSTYADSVKGRFTISRDNAKNTVYLQMNSLKPEDTAVYYCAYCRVVVYDVSGDDEDYDYWRQGTQVTVSS | low polyreactivity
15 | QVQLVESGGGLVQAGGSLRLSCAASGSTFPYNTMGWYRQAPGKERDFVAAITGDGGTTYYADSVKGRFTISRDNAQNTVYLQMNSLKQEDTAVYYCAVPYPAEGYGGDYWGQGSQVTVSS | low polyreactivity
16 | QVQLVESGGGLVQAGGSLRLSCAASGSTFPYYAMGRYRQAPGKERELVAAISQNGGSTYYADSVKGRFTISRDNAKNTVYLQMNSLKPEDTAVYYCNADGVGGEYRLSGYDYWGQGTQVTVSS | low polyreactivity
17 | QVQLVESGGGLVQAGGSLRLSCAASGSTFPYYAMGWYRQAPGKERELVAAISGSGGTTYYADSVKGRFTISRDNAKNTVYLQMNILKPEDTAVYYCAAEASHYYYNAYPSYGGSDYWGQGTQVTVSS | low polyreactivity
18 | QVQLVESGGGLVQAGGSLRLSCAASGSTFPYYAMGWYRQAPGKERELVAAITSGGSTYYADSVKGRFTISRDNAKNTVYLQMNSLKPEDTAVYYCAARYAPTLSVYRFYYWGQGTQVTVSS | high polyreactivity
19 | QVQLVESGGGLVQAGGSLRLSCAASGSTFPYYAMGWYRQAPGKERELVAAITSSTGRTYYADSVKGRFTISRDNAKNTVYFQMNSLKPEDTAVYYCNAEVYSDPYNDHDYWGQGTQVTVSS | low polyreactivity
20 | QVQLVESGGGLVQAGGSLRLSCAASGSTFPYYAMGWYRQAPGKEWDLVAAISASVGSTYYADSVKGRFTISRDNAKNTVYLQMNSLKPEDTAVYYCNRVRSSYVYVSRFDSWGQGNQVTVSS | high polyreactivity
21 | QVQLVESGGGLVQAGGSLRLSCAASGSTFPYYARVWYRQEPGKETELVAAISSSGGSTYYADSVKGRFTISRDNAKNTVFLQMNSLKPEDPAVYYCAARRKFPYRHDYWGQGTLVTVSS | high polyreactivity
22 | QVQLVESGGGLVQAGGSLRLSCAASGSTFPYYGMGWYRQAPGKERELVAAINSGGSTYYADSVKGRFTISRDNAKNTVYLQMNSLKPEDTAVYYCNAAYPEWYAYDYWGQGTQVTVSS | low polyreactivity

Row | Sequence | polyreactivity (PSR sort gate)
23 | QVQLVESGGGLVQAGGSLRLSCAASGSTFPYYTMGWYRQAPGKERELVAAITWRGGRTYYADSVKGRFTISRDNAKNTVYLQMNSLKPEDTAVYYCAAVTWVHRYSRFHPFVAFDFWGQGTQVTVSS | high polyreactivity
24 | QVQLVESGGGLVQAGGSLRLSCAASGSTFPYYVMGWYRQAPGKERELVAAISWSGASTYYADSVKGRFTISRDNAKNTVYLQMNSLKPEDTAVYYCNRPKWYDGDYWGQGTQVTVSS | high polyreactivity
25 | QVQLVESGGGLVQAGGSLRLSCAASGSTFQFNFMGWYRQAPGKERELVAAITSGASTYYADSVKGRFTISRDNAMNTVYLQMNSLEPEDTAVYYCAVDYSFRYDYVQRYYYLGQGTQVTVSS | high polyreactivity
26 | QVQLVESGGGLVQAGGSLRLSCAASGSTFQGYAMGWYGQAPGKERELVAAINYSGGSTYYADSVKGRFTISRDNAKNTVYLQMNSLKPEDTAVYFCAARWYAVRDDYIVRYDYWGQGTQVTVSS | high polyreactivity
27 | QVQLVESGGGLVQAGGSLRLSCAASGSTFQGYAMGWYRQAPGKERELVAAISWNGGSTYYADSVKGRFTISRDNAKNTVYLQMNSLKPEDTAVYYCAAYSFAYRFNYWGQGTQVTVSS | high polyreactivity
28 | QVQLVESGGGLVQAGGSLRLSCAASGSTFQGYAMGWYRQAPGKERELVSAISGSGGNTYYADSVKGRFTISRDNAKNTVYLQMNSLKPEVTAVYSCAAGHVRTDWRYGYWGQGTQVTVSS | low polyreactivity
29 | QVQLVESGGGLVQAGGSLRLSCAASGSTFQINAMGWYRQAPGKEREFVAAITVSSGSTYYADSVKGRFTISRDNAKNTVYLQMNSLKPEDTAVYYCAAEFHWWYAGYDYGYWGQGTQVTVSS | low polyreactivity
30 | QVQLVESGGGLVQAGGSLRLSCAASGSTFQINAMGWYRQAPGKERELVAAIDGGGDTYYADSVKGRFTISRDNAKNTVYLQMNTLKPEDTAVYYCAAERRIYYQDFNYWGQGTQVTVSS | low polyreactivity
31 | QVQLVESGGGLVQAGGSLRLSCAASGSTFQINAMGWYRQAPGKERELVAAIDGGGDTYYADSVKGRFTISRDNAKYTVYLQMNSMKPEDTAVYYCAAERRIYYQDFNFWGQGTQVTVSS | low polyreactivity
32 | QVQLVESGGGLVQAGGSLRLSCAASGSTFQIYTMGWYRQAPGKERELVAAITNGGGSTYYADSVKGRFTISRDNAKNTVYLQMNSLKPEDTAVYYCAAEQRYPLIILYDYWGQGTQVTVSS | low polyreactivity
33 | QVQLVESGGGLVQAGGSLRLSCAASGSTFQLYAMGWYRPPPGTERELVAGISRDGSTYYADSVKARFSISRDNSKNTVYLQMNSLKPEDTAVYYCAAKYYGNKRDLYYWGQGTQVTVSS | low polyreactivity
34 | QVQLVESGGGLVQAGGSLRLSCAASGSTFQLYVMGWYRQAPGKERELVAAIDDGGGSTYYADSVKGRFTISRDNAKNTVYLQMNSLKPEDTAVYYCARRYGYFGYEYDYWGQGTQVTVSS | high polyreactivity
35 | QVQLVESGGGLVQAGGSLRLSCAASGSTFQNYAMGWYRQAPGKERELVATINWSGGNTYYADSVKGRFTISRDNAKNTVYLQMNSLKPEDTAVYYCAADSPRYYYWVGPYYGYDYWGQGTQVTVSS | high polyreactivity
36 | QVQLVESGGGLVQAGGSLRLSCAASGSTFQRNAMGWYRQAPGKERELVAVITRRGASTYYADSVKGRFTISRDYEKNTVYLQMKSLKAEDTAVYYCNKVPYGRDHHLLFDYWGQGTQVTVSS | high polyreactivity
37 | QVQLVESGGGLVQAGGSLRLSCAASGSTFQSNAMGWYRQAPGKERELVASITDSGGRTYYADSVKGRFTSSRDNAKNTVYLQMNSLKPEDTAVYYCAAVSLWWSDYYFVEYDYWGQGTQVTVSS | high polyreactivity
38 | QVQLVESGGGLVQAGGSLRLSCAASGSTFQSNGMGWYRQAPGKERELVAAITSTDASTSYADSVKGRFTISRDNAKNTVYLQMNSLKPEDTAVYYCAADFPVASGAELDYWGQGTQVTVSS | low polyreactivity
39 | QVQLVESGGGLVQAGGSLRLSCAASGSTFQSYAMGWYRQAPGKERELVAAITTTGTRTYYADSVKGRFTISRDNAKNTVYLQMNSLKPEDTAVYYCNAQRLQAHRTSRRYGYWGQGTQVTVSS | high polyreactivity
40 | QVQLVESGGGLVQAGGSLRLSCAASGSTFQSYTMGWYRPAPGKERELVAAISSSGGRTYYADSVKGRFTISRDNAKHTVYLQMNSLKPEDTAVYYCAAVTQSWRGATWYDYWGQGTQVTVSS | high polyreactivity
41 | QVQLVESGGGLVQAGGSLRLSCAASGSTFQTNAMGWYRQAPGKERELVAAINSGGGTNYADSVKGRFTISRDNAKNTVYLQMNSLKPEDTAVYYCATDVLPRKYVSDYPSGAYDYWGQGTQVTVSS | low polyreactivity
42 | QVQLVESGGGLVQAGGSLRLSCAASGSTFQTNARGWYRQAPGKERELVAAITWSGTSTYADSVKGRFTISRDNAKNPGYFQMNSLKPDDTAVYYCAAPILSFPSPYVQYDYWGLGTQVTVSS | low polyreactivity
43 | QVQLVESGGGLVQAGGSLRLSCAASGSTFQWNAMGWYRQAPGKERELVAAISKSGGRTYYADSVKGRFTISRDFAKNTVYLQRNSLKPDDTAVYYCNALGSLDGRYGYWGQGTQVTVSS | high polyreactivity

Reference: the nanobody polyreactivity screen of Harvey et al. (2022)
